Measurements: the supplement of paper PMC9112550, “Optimization of the antimicrobial peptide Bac7 by deep mutational scanning” (BMC Biology, 2022)

These sequences were tested on Escherichia coli TOP10 (assay: shrunken log2 fold change of peptide-encoding DNA abundance (4.5 h post-induction vs induction); higher = less antimicrobial activity (less host growth inhibition)). Settings: time post-induction: 4.5 h; library: site-saturation at positions 5, 18, 19, 20.
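Further: peptides expressed intracellularly from a pBAD plasmid library in pooled LB shake-flask culture, induced with 0.3% L-arabinose, DNA abundance read by NGS, three biological replicates, DESeq2 with apeglm shrinkage.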

Sequence | shrunken log2 fold change
RRIRRRPPRLPRPRPRPSFAPRP | 0.492
RRIRDRPPRLPRPRPRPTSSPRP | 0.058
RRIRGRPPRLPRPRPRPPILPRP | -0.0529
RRIRKRPPRLPRPRPRPVCCPRP | 0.517
RRIRPRPPRLPRPRPRPPEIPRP | -0.0297
RRIRVRPPRLPRPRPRPPNTPRP | -0.0576
RRIRMRPPRLPRPRPRPANIPRP | -0.0889
RRIRNRPPRLPRPRPRPMIRPRP | -0.0231
RRIRARPPRLPRPRPRPEQYPRP | -0.0243
RRIRPRPPRLPRPRPRPFLVPRP | -0.0765
RRIRGRPPRLPRPRPRPDGNPRP | 0.276
RRIRMRPPRLPRPRPRPTVHPRP | 0.102
RRIRARPPRLPRPRPRPWTVPRP | -0.0846
RRIRTRPPRLPRPRPRPRDVPRP | 0.369
RRIRGRPPRLPRPRPRPSAQPRP | 1.26
RRIRNRPPRLPRPRPRPQDTPRP | -0.0984
RRIRWRPPRLPRPRPRPLCHPRP | -0.0785
RRIRLRPPRLPRPRPRPQIWPRP | -0.166
RRIRARPPRLPRPRPRPGRSPRP | 0.206
RRIRERPPRLPRPRPRPSWTPRP | -0.833

Sequence | shrunken log2 fold change
RRIRTRPPRLPRPRPRPRVYPRP | -0.454
RRIRFRPPRLPRPRPRPQNEPRP | -0.603
RRIRVRPPRLPRPRPRPLAIPRP | 0.0184
RRIRIRPPRLPRPRPRPWANPRP | -0.0688
RRIRVRPPRLPRPRPRPRPKPRP | 0.521
RRIRMRPPRLPRPRPRPTDAPRP | 0.741
RRIRTRPPRLPRPRPRPTEHPRP | -0.106
RRIRCRPPRLPRPRPRPAPYPRP | 0.0992
RRIRDRPPRLPRPRPRPWCRPRP | 0.0772
RRIRNRPPRLPRPRPRPIQVPRP | -0.0304
RRIRSRPPRLPRPRPRPFDHPRP | -0.488
RRIRRRPPRLPRPRPRPKIKPRP | -0.0183
RRIRARPPRLPRPRPRPPCGPRP | 0.443
RRIRRRPPRLPRPRPRPNYSPRP | -0.0871
RRIRCRPPRLPRPRPRPHHEPRP | -0.24
RRIRNRPPRLPRPRPRPSEGPRP | -0.0276
RRIRGRPPRLPRPRPRPRSDPRP | 0.555
RRIRKRPPRLPRPRPRPNDAPRP | 0.0832
RRIRHRPPRLPRPRPRPCEFPRP | -0.324
RRIRVRPPRLPRPRPRPCAIPRP | -0.379

Sequence | shrunken log2 fold change
RRIRMRPPRLPRPRPRPCRYPRP | 0.11
RRIRFRPPRLPRPRPRPIIFPRP | -0.621
RRIRWRPPRLPRPRPRPNLYPRP | -0.169
RRIRIRPPRLPRPRPRPSKVPRP | -1
RRIRMRPPRLPRPRPRPPKSPRP | 0.478
RRIRSRPPRLPRPRPRPGQRPRP | 0.0367
RRIRYRPPRLPRPRPRPPKCPRP | -0.813
RRIRYRPPRLPRPRPRPFCLPRP | -1.22
RRIRIRPPRLPRPRPRPCQNPRP | -0.282
RRIRNRPPRLPRPRPRPSSTPRP | -0.201
RRIRGRPPRLPRPRPRPPERPRP | 1.02
RRIRTRPPRLPRPRPRPLGPPRP | 0.114
RRIRQRPPRLPRPRPRPCMSPRP | -0.234
RRIRHRPPRLPRPRPRPSPNPRP | -0.302
RRIRARPPRLPRPRPRPLRQPRP | 0.736
RRIRARPPRLPRPRPRPNQIPRP | 0.0775
RRIRVRPPRLPRPRPRPYCDPRP | -0.348
RRIRNRPPRLPRPRPRPMILPRP | -0.0112
RRIRSRPPRLPRPRPRPSNSPRP | -0.145
RRIRERPPRLPRPRPRPWPKPRP | -0.102
